Consider five molecules from US8759295B2, “Peptide-peptidase inhibitor conjugates and methods of using same” (Amylin Pharmaceuticals, LLC, priority 2006, dated 2014).

Data set [1] concerns the target T1, Recombinant DPP-IV (Homo sapiens, UniProt P27487). The data set can be described thus: DPP-IV resistance assay by mass spectrometry. As to the method: The peptides were then desalted and concentrated on a C18 peptide micro trap (Michrom Bioresources, Inc., Auburn, Calif.) prior to introduction to a LTQ FT™ mass spectrometer (Thermo-Electron Corp., Waltham, Mass.) via an autosampler (Michrom Bioresources, Inc.). Peptides were eluted from a C5 packed 75 μm fused silica pico-frit column (New Objective, Inc., Woburn, Mass.) using a 5-60% acetonitrile/water gradient over 50 minutes at a flow rate of 500 nl/min. Extracted ion mass windows for the calculated m/z values of the most dominant charge states were used to search for both the parent compound and the theoretical hydrolyzed products within a given chromatogram. Exact mass was confirmed for each charge state by FT. The percentage of hydrolysis catalyzed by DPP-IV was estimated by dividing the area of product ions by the area of the total (parent+product) ions.
The estimated cleavage product conversion is based on the ratio of the ion extract area (indicated on top of the peaks) for [product ion]^5+ over that for total ions ([Mother Ion]^5++[product ion]^5+). The m/z ratios used to search for the expected ions are listed on the right side of the plots.

The conditions of data set [2]: human, kidney or brush border membranes, 4 h, pH 7.4.
Procedure: The tubes were incubated in VorTemp 56™ (Eurotech Labs, UK) at 37° C. vortexed at 500 RPM. At time points of 0, 1, 2, 3, 4, and 5 hours, 200 μl STOP solution (50% ACN, 1% formic acid) was added to a given tube, and the samples were allowed to incubate until the end of the experiment. The samples were collected after 5 hours, centrifuged, and 200 μl of the supernatants were transferred into mass spectrometry vials. The intensities of the mother ions in each vial were analyzed with API 150EX™ mass spectrometer (Applied Biosystems, Foster City, Calif.) and quantified using the ANALYST™ program.
The hKBBM assay was also performed in the presence of valinepyrrolidide, a DPP-IV inhibitor.
The test system of data set [3] is NIH/Swiss mice. Description: Oral glucose tolerance test (OGTT), glucose lowering. Conditions: IP; for glucose lowering in OGTT (FIGS. 7, 8): 2 hour fasted mice.
Data set [4] addresses T1, Recombinant DPP-IV. The arrangement: purchased Chemicon International, Inc., Temecula, Calif. Conditions: Leiting et al. (2003); read-out: DPP-IV IC50, published value; cited from earlier work.

Read-outs that look alike come from different tables or passages of the source.

T1 sequence (P27487 whole entry, species assumed, the tested form may be a part): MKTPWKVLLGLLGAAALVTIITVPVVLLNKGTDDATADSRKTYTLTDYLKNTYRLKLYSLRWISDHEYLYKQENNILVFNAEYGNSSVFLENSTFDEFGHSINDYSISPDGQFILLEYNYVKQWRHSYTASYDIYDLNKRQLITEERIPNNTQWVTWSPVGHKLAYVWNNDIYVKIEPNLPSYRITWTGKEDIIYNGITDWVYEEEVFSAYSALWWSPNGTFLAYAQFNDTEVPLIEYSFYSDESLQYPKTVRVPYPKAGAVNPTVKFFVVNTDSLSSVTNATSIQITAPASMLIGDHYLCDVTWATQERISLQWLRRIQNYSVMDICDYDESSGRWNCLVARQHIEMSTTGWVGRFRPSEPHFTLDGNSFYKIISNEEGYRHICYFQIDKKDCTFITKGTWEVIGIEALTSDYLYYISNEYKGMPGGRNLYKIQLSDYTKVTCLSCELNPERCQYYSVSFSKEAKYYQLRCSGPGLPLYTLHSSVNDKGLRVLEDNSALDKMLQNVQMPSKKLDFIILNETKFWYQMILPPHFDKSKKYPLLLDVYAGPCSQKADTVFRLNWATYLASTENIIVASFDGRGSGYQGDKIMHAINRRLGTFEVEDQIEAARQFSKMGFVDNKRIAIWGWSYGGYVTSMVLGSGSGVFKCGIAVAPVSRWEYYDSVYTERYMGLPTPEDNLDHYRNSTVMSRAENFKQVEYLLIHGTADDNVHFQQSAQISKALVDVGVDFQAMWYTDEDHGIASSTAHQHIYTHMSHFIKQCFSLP

Take `CC[C@H](C)[C@H](NC(=O)[C@H](Cc1ccccc1)NC(=O)[C@H](CCC(=O)O)NC(=O)[C@H](CCCCN)NC(=O)[C@H](C)NC(=O)[C@H](C)NC(=O)[C@H](CCC(N)=O)NC(=O)CNC(=O)[C@H](CCC(=O)O)NC(=O)[C@H](CC(C)C)NC(=O)[C@H](Cc1ccc(O)cc1)NC(=O)[C@H](CO)NC(=O)[C@H](CO)NC(=O)[C@@H](NC(=O)[C@H](CC(=O)O)NC(=O)[C@H](CO)NC(=O)[C@@H](NC(=O)[C@H](Cc1ccccc1)NC(=O)[C@@H](NC(=O)CNC(=O)[C@H](CCC(=O)O)NC(=O)[C@H](C)NC(=O)[C@@H](N)Cc1c[nH]cn1)[C@@H](C)O)[C@@H](C)O)C(C)C)C(=O)N[C@@H](C)C(=O)N[C@@H](Cc1c[nH]c2ccccc12)C(=O)N[C@@H](CC(C)C)C(=O)N[C@H](C(=O)N[C@@H](CCCCN)C(=O)NCC(=O)N[C@@H](CCCNC(=N)N)C(=O)NCC(=O)NCC(=O)NCC(=O)NCCCC[C@H](N)C(=O)N1CCSC1)C(C)C` [Compound 4844, GLP-1-(7-37)-GG-(S)-2,6-diamino-1-(thiazolidin-3-yl)hexan-1-one amide]: the “DPP-IV catalyzed cleavage product ions” value in data set [1] (incubation with DPP-IV) is reported as “expected product ions were not observed”. As to `CC[C@H](C)[C@H](NC(=O)[C@H](Cc1ccccc1)NC(=O)[C@H](CCC(=O)O)NC(=O)[C@H](CCCCN)NC(=O)[C@H](C)NC(=O)[C@H](C)NC(=O)[C@H](CCC(N)=O)NC(=O)CNC(=O)[C@H](CCC(=O)O)NC(=O)[C@H](CC(C)C)NC(=O)[C@H](Cc1ccc(O)cc1)NC(=O)[C@H](CO)NC(=O)[C@H](CO)NC(=O)[C@@H](NC(=O)[C@H](CC(=O)O)NC(=O)[C@H](CO)NC(=O)[C@@H](NC(=O)[C@H](Cc1ccccc1)NC(=O)[C@@H](NC(=O)CNC(=O)[C@H](CCC(=O)O)NC(=O)[C@H](C)NC(=O)[C@H](Cc1c[nH]cn1)NC(=O)COCCOCCNC(=O)[C@@H]1CCCN1C(=O)[C@H](C)NC(CCc1ccccc1)C(=O)O)[C@@H](C)O)[C@@H](C)O)C(C)C)C(=O)N[C@@H](C)C(=O)N[C@@H](Cc1c[nH]c2ccccc12)C(=O)N[C@@H](CC(C)C)C(=O)N[C@H](C(=O)N[C@@H](CCCCN)C(=O)NCC(=O)N[C@@H](CCCNC(=N)N)C(N)=O)C(C)C` (stereo partly drawn) [Compound 4983, (R,S)-1-[N^2-(1-carboxy-3-phenylpropyl)-L-ala]-L-pro-8-amino-3,6-dioxaoctanoyl-GLP-1-(7-36) amide], in data set [2], the “intact conjugate compound present” value is recorded as “greater than 80%”. In data set [3], the “glucose lowering in OGTT (FIGS. 7, 8)” value is “retain the glucose-lowering activity of GLP-1”. With `CC[C@H](C)[C@H](NC(=O)[C@H](Cc1ccccc1)NC(=O)[C@H](CCC(=O)O)NC(=O)[C@H](CCCCN)NC(=O)[C@H](C)NC(=O)[C@H](C)NC(=O)[C@H](CCC(N)=O)NC(=O)CNC(=O)[C@H](CCC(=O)O)NC(=O)[C@H](CC(C)C)NC(=O)[C@H](Cc1ccc(O)cc1)NC(=O)[C@H](CO)NC(=O)[C@H](CO)NC(=O)[C@@H](NC(=O)[C@H](CC(=O)O)NC(=O)[C@H](CO)NC(=O)[C@@H](NC(=O)[C@H](Cc1ccccc1)NC(=O)[C@@H](NC(=O)CNC(=O)[C@H](CCC(=O)O)NC(=O)[C@H](C)NC(=O)[C@@H](N)Cc1c[nH]cn1)[C@@H](C)O)[C@@H](C)O)C(C)C)C(=O)N[C@@H](C)C(=O)N[C@@H](Cc1c[nH]c2ccccc12)C(=O)N[C@@H](CC(C)C)C(=O)N[C@H](C(=O)N[C@@H](CCCCN)C(=O)NCC(=O)N[C@@H](CCCNC(=N)N)C(=O)NCC(=O)NCC(=O)NCC(=O)NCCCC[C@H](N)C(=O)N1CCSC1C#N)C(C)C` (stereo partly drawn) [Compound 4845, GLP-1-(7-37)-GG-(S)-2,6-diamino-1-(thiazolidin-2-cyano-3-yl)hexan-1-one amide], the “DPP-IV catalyzed cleavage product ions” value in data set [1] is reported as “expected product ions were not observed”.

With `CC[C@H](C)[C@H](NC(=O)[C@H](Cc1ccccc1)NC(=O)[C@H](CCC(=O)O)NC(=O)[C@H](CCCCN)NC(=O)[C@H](C)NC(=O)[C@H](C)NC(=O)[C@H](CCC(N)=O)NC(=O)CNC(=O)[C@H](CCC(=O)O)NC(=O)[C@H](CC(C)C)NC(=O)[C@H](Cc1ccc(O)cc1)NC(=O)[C@H](CO)NC(=O)[C@H](CO)NC(=O)[C@@H](NC(=O)[C@H](CC(=O)O)NC(=O)[C@H](CO)NC(=O)[C@@H](NC(=O)[C@H](Cc1ccccc1)NC(=O)[C@@H](NC(=O)CNC(=O)[C@H](CCC(=O)O)NC(=O)[C@H](C)NC(=O)[C@H](Cc1c[nH]cn1)NC(=O)COCCOCCNC(=O)COCCOCCNC(=O)[C@@H]1CCCN1C(=O)[C@H](C)NC(CCc1ccccc1)C(=O)O)[C@@H](C)O)[C@@H](C)O)C(C)C)C(=O)N[C@@H](C)C(=O)N[C@@H](Cc1c[nH]c2ccccc12)C(=O)N[C@@H](CC(C)C)C(=O)N[C@H](C(=O)N[C@@H](CCCCN)C(=O)NCC(=O)N[C@@H](CCCNC(=N)N)C(N)=O)C(C)C` (stereo partly drawn) [Compound 4984, (R,S)-1-[N^2-(1-carboxy-3-phenylpropyl)-L-ala]-L-pro-8-amino-3,6-dioxaoctanoyl-8-amino-3,6-dioxaoctanoyl-GLP-1-(7-36) amide], the “intact conjugate compound present” value in data set [2] is reported as “greater than 80%”. The “glucose lowering in OGTT (FIGS. 7, 8)” value in data set [3] is recorded as “retain the glucose-lowering activity of GLP-1”. The “duration of glucose lowering in OGTT” value in data set [3] (240 minutes sample) is given as “prolonged effect 4 hours after dosing”. One may read the IC50 as the concentration that gives 50% inhibition. `CCC(C)C(N)C(=O)N1CCCC1C(=O)NC(C(=O)O)C(C)CC` (stereo not drawn) [Diprotin A, Ile-Pro-Ile]: in data set [4], the IC50 was 3.5 µM.
